Data from patent publication US20230357364A1.

Columns and labels:
[1] = target: SARS-CoV-2 spike on pseudovirus or live virus (USA-WA1/2020, WT) (SARS-CoV-2) (UniProt P0DTC2); assay: cell-based or functional assay
[2] = target: SARS-CoV-1 spike on pseudovirus (SARS-CoV-1) (UniProt P59594); assay: cell-based or functional assay

Q: What does the source list for REGN10933 (antibody)?
A: PSV in HeLa-ACE2 cells IC50 [1]: 6 ng/mL; live virus IC50 (HeLa-ACE2) [1]: 2 ng/mL; live virus IC50 (Vero) [1]: 1 ng/mL; PSV in HeLa-ACE2 cells IC50 [2]: > 25000 ng/mL

Q: Which results are given for REGN10987 (antibody)?
A: PSV in HeLa-ACE2 cells IC50 [1]: 93 ng/mL; live virus IC50 (HeLa-ACE2) [1]: 5 ng/mL; live virus IC50 (Vero) [1]: 1 ng/mL; PSV in HeLa-ACE2 cells IC50 [2]: > 25000 ng/mL
